“And” between values parts separate entries of the source, which are not always exact repeats. Equal entries are not always repeated.
Assays:
[1] = test system: rat forebrain astrocytes in primary culture; assay: Astrocyte proliferation assay ([3H]-thymidine incorporation normalized to [35S]-methionine); type: cell-based; details: for inhibition of proliferation depending on cell density: 2 μg/ml N-CAM
Method: Primary cultures of astrocytes were prepared from the forebrains of 4-5 day old neonatal rats. After decapitation and removal of the forebrains from the skull, the meninges were carefully peeled off, and forebrain tissue was triturated in sterile phosphate buffered saline (PBS) using firepolished pipettes. The resulting suspension of tissue fragments was incubated in Hank's balanced salt solution (Gibco BRL) with 2.5 mg/ml trypsin, 1 mM EDTA and 0.1 mg/ml DNase (Boehringer) at 37° C. for 15 minutes. […] The pellet was resuspended in serum free medium (SFM) consisting of Dulbecco's Modified Eagle Medium (D-MEM), 2 mM L-glutamine, 50 U/ml penicillin G sodium and 50 μg/ml streptomycin sulfate (all from Gibco BRL) supplemented by 10% (vol/vol) fetal bovine serum (FBS). The cells were transferred to a standard 100 mm tissue culture dish (Falcon) and incubated at 37° C. for 1-2 hours. After mild shaking, the supernatant containing unattached cells was transferred to a 100 mm collagen-coated dish. […] Cell samples were checked regularly for the expression of GFAP, a marker for astrocytes.
After cell attachment, the culture medium was exchanged for SFM. In antisense experiments, oligonucleotides were added at the same time (T=0). […] After another 12 hours (at T=60), [^3 H]-thymidine (New England Nuclear, 20 Ci/mmol) was added (0.38 μM, 10 μCi/ml). Following an additional 12 hours (T=72), the wells were drained, counts precipitated by ice-cold […] trichloroacetic acid, and the plates left to dry. Counts were solubilized overnight by adding 100 μl 1 N KOH to each well, neutralized with 100 μl 1 N HCl, transferred to liquid scintillation vials and counted in 3 ml of Beckman Ready Safe liquid scintillation cocktail on a Packard 1600 TR counter. […] In this paper, proliferation is expressed as [^3 H]-thymidine incorporation normalized to [35]-methionine incorporation and calculated as [^3 H] dpm/ [35] dpm.

[2] = test system: dividing astrocytes in cerebral cortex, hippocampus or striatum; assay: In vivo labeling index of dividing astrocytes (BrdU with GFAP or S100) after stab lesion with infusion; parameters: species or system rat; details: for Labeling Index (Experimental): N-CAM 250 μg/ml, 3rd Ig domain 5 mg/ml, N-CAM peptide 1 mg/ml, 3 μl infused, n=3
Method: Samples were injected into the brains of rats (Wistar Albino, Male, 200-250 g, Charles River, anesthetized with xylazine (12 mg/kg) and ketamine (90 mg/kg) through a 26 gauge needle. The needle point was placed at the stereotactic coordinates of either the hippocampus, cerebral cortex or striatum (Table 2). Bilateral injections of 3-4 μl were made using an Hamilton syringe. Each animal received an infusion of either the purified rat N-CAM (250 μg/ml), the third Ig domain of chicken N-CAM (5 mg/ml), or the rat N-CAM peptide KHIFSDDSSE (SEQ ID NO 2) (1 mg/ml) in PBS into one hemisphere; the other hemisphere was infused with the random peptide (SFSISDEDHK (SEQ ID NO 9), 1 mg/ml in PBS) as a control. The experimental and control sides varied between animals and choice of side had no significant effect on the results. Three μl of each protein or peptide was infused at a rate of 0.2 μl per minute after which the needle was left in place for 5 minutes and then removed. In one experiment, a group of animals received basic fibroblast growth factor (bFGF, 450 ng) in the solutions which contained either the random peptide or the purified N-CAM.
The samples were either purified N-CAM in phosphate buffered saline (PBS), N-CAM peptide KHIFSDDSSE (SEQ. ID. NO. 2) (1 mg/ml or 10 mg/ml) in PBS, or the corresponding random peptide SFSISDEDHK (SEQ ID NO 9) (1 mg/ml) (see Example 3 above). The injection rate was about 0.2 μl/min; the needle was left in place for 5 minute after the injection. Each animal received either the purified N-CAM or the N-CAM peptide injected into one side of the brain and the corresponding structure on the other side was injected with the random peptide as a control.
Three animals were examined for each treatment and brain region described. Animals were maintained for a postinjection survival time of about 70-72 hours. During that time they received five injections of bromodeoxyuridine (Brdu) dissolved in 0.007 N NaOH (120 mg/kg, intraperitoneal). Two of the three animals that had been injected in the hippocampus received Brdu approximately 18, 28, 42, 52, and 70 hours after the stereotactic surgery. All of the animals that had been injected in the cerebral cortex or the striatum and one animal injected in the hippocampus received Brdu approximately 2, 18, 28, 42, and 52 hours after the stereotactic surgery.
Animals were perfused under anesthesia with about 30 ml of ice-cold PBS followed by about 400 ml of ice-cold […] in PBS. The brains were then removed and postfixed for 2-16 hours in 4% paraformaldehyde in PBS then placed in succeeding solutions of ascending concentrations of sucrose (12%, 18%, and 24%). The brains were then sectioned on a cryostat at a thickness of 10 μm.
Non-specific binding on the sections was blocked by incubation in 8% fetal bovine serum (FBS) in PBS. Sections were then incubated in polyclonal antibody to glial fibrillary acidic protein (GFAP; 1:100 dilution, Dako) in 0.2% Triton X-100, 8% FBS/PBS for 24 - 48 hr at 4° C. The sections were processed using a biotinylated secondary antibody and the Vectastain ABC kit (Vector), and stained with a diaminobenzidine peroxidase substrate kit from Vector or Pierce. The sections were then incubated for 6 minutes in a solution of Proteinase K (Dako), rinsed and incubated in 2 N HCL for 20 minutes at 37° C. The sections were rinsed and blocked in 8% FBS/PBS and incubated in a monoclonal antibody to Brdu (1:40 dilution, Dako), 0.01% Triton X-100, 8% fetal bovine serum/PBS for 24-48 hr at 4° C. The sections were processed using a biotinlyated secondary antibody and the Vectastain ABC kit (Vector), and stained with a VIP peroxidase substrate kit from Vector giving the Brdu positive cells a red color. The sections were then rinsed in PBS and coverslipped in glycerol/PBS.
GFAP positive cells and cells positive for both GFAP and BRDU were counted under a Zeiss Axiophot light microscope. […]

[3] = test system: C6 glioma cells; assay: Proliferation of C6 glioma cells in SFM at low cell densities; type: cell-based; details: externally added N-CAM

B1: N-CAM: neural cell adhesion molecule purified from early postnatal rat brains by affinity chromatography, mainly polysialylated embryonic form (protein, UniProt P13596 20-858, looked up)
Neural cell adhesion molecule …: LQVDIVPSQGEISVGESKFFLCQVAGDAKDKDISWFSPNGEKLSPNQQRISVVWNDDDSSTLTIYNANIDDAGIYKCVVTAEDGTQSEATVNVKIFQKLMFKNAPTPQEFKEGEDAVIVCDVVSSLPPTIIWKHKGRDVILKKDVRFIVLSNNYLQIRGIKKTDEGTYRCEGRILARGEINFKDIQVIVNVPPTVQARQSIVNATANLGQSVTLVCDADGFPEPTMSWTKDGEPIENEEEDDEKHIFSDDSSELTIRNVDKNDEAEYVCIAENKAGEQDASIHLKVFAKPKITYVENQTAMELEEQVTLTCEASGDPIPSITWRTSTRNISSEEKASWTRPEKQETLDGHMVVRSHARVSSLTLKSIQYTDAGEYICTASNTIGQDSQSMYLEVQYAPKLQGPVAVYTWEGNQVNITCEVFAYPSATISWFRDGQLLPSSNYSNIKIYNTPSASYLEVTPDSENDFGNYNCTAVNRIGQESLEFILVQADTPSSPSIDRVEPYSSTAQVQFDEPEATGGVPILKYKAEWKSLGEEAWHSKWYDAKEANMEGIVTIMGLKPETRYAVRLAALNGKGLGEISAATEFKTQPVREPSAPKLEGQMGEDGNSIKVNLIKQDDGGSPIRHYLVKYRALASEWKPEIRLPSGSDHVMLKSLDWNAEYEVYVVAENQQGKSKAAHFVFRTSAQPTAIPANGSPTAGLSTGAIVGILIVIFVLLLVVMDITCYFLNKCGLLMCIAVNLCGKAGPGAKGKDMEEGKAAFSKDESKEPIVEVRTEEERTPNHDGGKHTEPNETTPLTEPEKGPVETKSEPQESEAKPAPTEVKTVPNEATQTKENESKA
modifications: polysialylated embryonic form
With B1 the “inhibition of proliferation depending on cell density” value ([1]; higher cell density 28×10^4 cells/cm^2, confluent) was “virtually ineffective”, the “inhibition of proliferation depending on cell density” value ([1]; lower cell density 1.8×10^4 cells/cm^2) was “Inhibition was maximal” and the “N-CAM Alone” value ([1]; N-CAM 2 μg/ml, parallel control of each drug experiment (Table 5)) was 32.5 % of SFM Control and 34 % of SFM Control. The “maximal suppression of proliferation” value ([1]; N-CAM 10 μg/ml in SFM, 7×10^4 cells/cm^2, three preparations) was > 90%, the “effect on astrocyte proliferation (in words)” value ([1]; added to astrocyte cultures in SFM) was “inhibited their proliferation in a concentration dependent manner” and the “suppressive effect of N-CAM added together with growth stimulus” value ([1]; with 1% FBS or 20 ng/ml bFGF) was “suppressive effect similar in magnitude to that observed in SFM”. For the same molecule, the “Percent Difference of labeling index, experimental vs control” value (shortened to “Percent Difference of labeling index”) ([2]; cerebral cortex) was -52.1 ± 4.5%, the “Labeling Index (Experimental)” value ([2]; cerebral cortex) was 10.2 ± 1.5% and the “effect on mitogenic effects of bFGF in vivo” value ([2]; cortical lesion, bFGF 450 ng co-infused) was “able to oppose the mitogenic effects of bFGF”. For the same molecule, the “Percent Difference of labeling index” value ([2]; hippocampus) was -25.2 ± 1.6%, the “Labeling Index (Experimental)” value ([2]; hippocampus) was 14.6 ± 2.3% and the “inhibition of astrocyte proliferation” value ([2]; infusion into cerebral cortex at 100 μg/ml) was 0-10%. The “Percent Difference of labeling index” value ([2]; striatum) was -20.8 ± 2.1%, the “Labeling Index (Experimental)” value ([2]; striatum) was 20.7 ± 0.7% and the “rate of proliferation of C6 glioma cells” value [3] was “decrease their rate of proliferation”.
